From paper PMC6143588, “A variant NuRD complex containing PWWP2A/B excludes MBD2/3 to regulate transcription at active genes” (Nature Communications, 2018)
Where no end group is shown, it is not given here. The star is where a group is joined. 5FAM = O=C1OC2(c3ccc(O)cc3Oc3cc(O)ccc32)c2ccc(C(=O)*)cc21

T1: His10-Flag3-TEV-MTA1 162-546 (UniProt Q13330 162-546)
T1 construct: MTA1 residues 162-546 (ELM2 and SANT domains and an additional domain that recruits RBBP4); The complex was captured by the Flag tag and then cut from the resin with TEV before gel filtration; also called FLAG-MTA1 162-546; MTA1-long; source: HEK293F, co-transfected, purified on FLAG resin, TEV cleavage, gel filtration; not shown: His10, N-terminal, kept; Flag3, N-terminal, kept
T1 sequence (looked up): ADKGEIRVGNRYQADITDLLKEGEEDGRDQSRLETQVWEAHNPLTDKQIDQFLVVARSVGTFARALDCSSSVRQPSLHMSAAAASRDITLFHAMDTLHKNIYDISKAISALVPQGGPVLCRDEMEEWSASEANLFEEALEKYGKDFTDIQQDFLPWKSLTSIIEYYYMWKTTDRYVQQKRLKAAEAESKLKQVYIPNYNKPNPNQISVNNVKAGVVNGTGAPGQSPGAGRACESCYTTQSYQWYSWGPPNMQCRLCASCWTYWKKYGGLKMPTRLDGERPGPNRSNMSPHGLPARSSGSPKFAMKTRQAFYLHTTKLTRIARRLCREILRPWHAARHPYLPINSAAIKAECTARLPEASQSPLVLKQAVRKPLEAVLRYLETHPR

B1: PWWP2A1–373, untagged, co-expressed in HEK293F cells (domain or fragment, UniProt Q96N64 1-373, looked up)
chain: MAAVAAEAAATAASPGEGGAGEAEPEMEPIPGSEAGTDPLPVTATEASVPDGETDGQQSAPQADEPPLPPPPPPPGELARSPEAVGPELEAEEKLSVRVAESAAAAPQGGPELPPSPASPPEQPPAPEEREEPPLPQPVAPALVPPAGGDSTVSQLIPGSEVRVTLDHIIEDALVVSFRFGEKLFSGVLMDLSKRFGPHGIPVTVFPKREYKDKPEAMPLQSNTFQEGTEVKCEANGAVPDDPSPVPHPELSLAESLWTSKPPPLFHEGAPYPPPLFIRDTYNQSIPQPPPRKIKRPKRKMYREEPTSIMNAIKLRPRQVLCDKCKNSVVAEKKEIRKGSSATDSSKYEDKKRRNESVTTVNKKLKTDHKVDG
notes: source: HEK293F, co-transfected, co-purified with FLAG-MTA1 (FLAG resin, gel filtration)
B2: fluorescein-labelled PWWP2A peptide (residues 311–325) (peptide, UniProt Q96N64 311-325, looked up)
peptide: 5FAM-NAIKLRPRQVLCDKC
modifications: cysteine pairing not given here
notes: PWWP2A residues 311-325, contains the motif R/QPRQV/L; source: synthetic peptide (Cambridge Research Biochemicals)

Experiments:
[1] = target: T1, His10-Flag3-TEV-MTA1 162-546; experiment: co-IP + SEC; co-expression in HEK293F of His10-Flag3-TEV-MTA1 162-546 with untagged HDAC1, RBBP4 and PWWP2A 1-373; FLAG resin, TEV cleavage, Superdex S200 in 25 mM Tris-Cl pH 7.5, 50 mM potassium acetate, 0.5 mM TCEP; SDS-PAGE; conditions: partners not purified
[2] = target: T2, HDAC1:MTA1 162–354 complex (UniProt Q13547 1-482; Q13330 162-354); experiment: fluorescence polarisation; fluorescence anisotropy of 5-FAM PWWP2A peptide with unlabelled HDAC1:MTA1 162-354 complex; room temperature; 50 mM Tris pH 7.5, 150 mM KAc, 0.15 mg/mL BSA, 0.03% Tween-20; excitation 480 nm, emission 535 nm; conditions: both partners purified
T2 construct: HDAC1, untagged; MTA1 residues 162-354; Unlabelled complex formed beforehand, used in the anisotropy titration; also called MTA1:HDAC1 complex; HM; source: HEK293F, co-transfected, purified (FLAG resin, TEV cleavage, gel filtration); not shown: His10, N-terminal, cleaved; Flag3, N-terminal, cleaved
T2 sequence (Q13547 whole entry, chain 1 of 2, one chain of several, the tested form may be a part): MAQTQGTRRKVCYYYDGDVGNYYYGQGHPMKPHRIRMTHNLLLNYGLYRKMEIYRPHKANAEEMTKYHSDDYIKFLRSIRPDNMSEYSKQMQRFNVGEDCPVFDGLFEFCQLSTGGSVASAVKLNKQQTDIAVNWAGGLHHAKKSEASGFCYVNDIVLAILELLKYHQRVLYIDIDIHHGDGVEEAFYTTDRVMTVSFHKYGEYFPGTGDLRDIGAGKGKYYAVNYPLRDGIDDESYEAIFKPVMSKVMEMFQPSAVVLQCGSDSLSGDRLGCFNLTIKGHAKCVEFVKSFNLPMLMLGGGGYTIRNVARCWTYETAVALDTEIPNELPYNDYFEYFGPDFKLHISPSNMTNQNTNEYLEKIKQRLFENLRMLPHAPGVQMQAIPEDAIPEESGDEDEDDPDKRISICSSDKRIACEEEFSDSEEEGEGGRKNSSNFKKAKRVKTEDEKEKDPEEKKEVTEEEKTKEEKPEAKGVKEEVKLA

Row | Binder | stoichiometry N [1] | Kd [2]
1 | B1 | ~1 | –
2 | B2 | – | 20 to 100 µM
